B1: IKZF1 (parent)
chain: RDPFECNMCGYHSQDRYEFSSHIT

Variants of: B1
Assay: protein stability index of a GFP-peptide fusion (GPS, HEK-293T) (PSI 1-6); higher = more stable
Details: c terminus: a fixed tail appended
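Further: lentivirally expressed fusions sorted by FACS into six bins by GFP to DsRed ratio, PSI derived from sequencing read proportions per bin multiplied by bin number.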

In order of rising protein stability index:
1. RDPFSCNMCGYHSQDRYEFSSHIT  1.33
2. RDPFECFMCGYHSQDRYEFSSHIT  1.33
3. RDFFECNMCGYHSQDRYEFSSHIT  1.44
4. RDPFECRMCGYHSQDRYEFSSHIT  1.49
5. RDYFECNMCGYHSQDRYEFSSHIT  1.5
6. RFPFECNMCGYHSQDRYEFSSHIT  1.57
7. RDPFWCNMCGYHSQDRYEFSSHIT  1.59
8. RAPFECNMCGYHSQDRYEFSSHIT  1.63
9. RDAFECNMCGYHSQDRYEFSSHIT  1.64
10. RMPFECNMCGYHSQDRYEFSSHIT  1.68
11. RDLFECNMCGYHSQDRYEFSSHIT  1.68
12. RDWFECNMCGYHSQDRYEFSSHIT  1.69
13. RDPFNCNMCGYHSQDRYEFSSHIT  1.71
14. RDPFECSMCGYHSQDRYEFSSHIT  1.72
15. RSPFECNMCGYHSQDRYEFSSHIT  1.73
16. YDPFECNMCGYHSQDRYEFSSHIT  1.73
17. RHPFECNMCGYHSQDRYEFSSHIT  1.75
18. RDPFECAMCGYHSQDRYEFSSHIT  1.75
19. RDMFECNMCGYHSQDRYEFSSHIT  1.76
20. RDVFECNMCGYHSQDRYEFSSHIT  1.76
21. RYPFECNMCGYHSQDRYEFSSHIT  1.77
22. RDPFFCNMCGYHSQDRYEFSSHIT  1.78
23. RDPFECLMCGYHSQDRYEFSSHIT  1.79
24. RDPFECNACGYHSQDRYEFSSHIT  1.81
25. RDPFECNMCFYHSQDRYEFSSHIT  1.81
26. RTPFECNMCGYHSQDRYEFSSHIT  1.82
27. RDPFGCNMCGYHSQDRYEFSSHIT  1.82
28. RDPFECNMCMYHSQDRYEFSSHIT  1.82
29. RDPFECYMCGYHSQDRYEFSSHIT  1.83
30. RDPFYCNMCGYHSQDRYEFSSHIT  1.85
31. RDPFMCNMCGYHSQDRYEFSSHIT  1.88
32. FDPFECNMCGYHSQDRYEFSSHIT  1.88
33. RDPFECCMCGYHSQDRYEFSSHIT  1.89
34. RDPIECNMCGYHSQDRYEFSSHIT  1.89
35. RDPFHCNMCGYHSQDRYEFSSHIT  1.9
36. RDPFPCNMCGYHSQDRYEFSSHIT  1.91
37. RDIFECNMCGYHSQDRYEFSSHIT  1.91
38. RWPFECNMCGYHSQDRYEFSSHIT  1.92
39. RDPFRCNMCGYHSQDRYEFSSHIT  1.92
40. RDPFECNMCIYHSQDRYEFSSHIT  1.92
41. RLPFECNMCGYHSQDRYEFSSHIT  1.93
42. RDPFECWMCGYHSQDRYEFSSHIT  1.93
43. RDNFECNMCGYHSQDRYEFSSHIT  1.94
44. RDGFECNMCGYHSQDRYEFSSHIT  1.94
45. RGPFECNMCGYHSQDRYEFSSHIT  1.95
46. RKPFECNMCGYHSQDRYEFSSHIT  1.96
47. RNPFECNMCGYHSQDRYEFSSHIT  1.96
48. RDPFEFNMCGYHSQDRYEFSSHIT  1.96
49. RDPFECMMCGYHSQDRYEFSSHIT  1.97
50. RPPFECNMCGYHSQDRYEFSSHIT  1.98
51. RRPFECNMCGYHSQDRYEFSSHIT  1.99
52. RDPFELNMCGYHSQDRYEFSSHIT  1.99
53. RDPFVCNMCGYHSQDRYEFSSHIT  2.01
54. RDPFECQMCGYHSQDRYEFSSHIT  2.01
55. RDPFECNRCGYHSQDRYEFSSHIT  2.02
56. RDTFECNMCGYHSQDRYEFSSHIT  2.02
57. RDPFEMNMCGYHSQDRYEFSSHIT  2.02
58. RDSFECNMCGYHSQDRYEFSSHIT  2.03
59. RQPFECNMCGYHSQDRYEFSSHIT  2.04
60. RDRFECNMCGYHSQDRYEFSSHIT  2.04
61. RDKFECNMCGYHSQDRYEFSSHIT  2.04
62. RDPFECVMCGYHSQDRYEFSSHIT  2.04
63. RDPFEYNMCGYHSQDRYEFSSHIT  2.04
64. RDPFECIMCGYHSQDRYEFSSHIT  2.05
65. RDPFQCNMCGYHSQDRYEFSSHIT  2.06
66. RDPFERNMCGYHSQDRYEFSSHIT  2.06
67. RDPFKCNMCGYHSQDRYEFSSHIT  2.07
68. RDPFECNGCGYHSQDRYEFSSHIT  2.07
69. RDPFECNMCVYHSQDRYEFSSHIT  2.07
70. RDPYECNMCGYHSQDRYEFSSHIT  2.07
71. RDPFLCNMCGYHSQDRYEFSSHIT  2.08
72. RDPFECNMCLYHSQDRYEFSSHIT  2.08
73. SDPFECNMCGYHSQDRYEFSSHIT  2.1
74. RDPFCCNMCGYHSQDRYEFSSHIT  2.11
75. RDPFACNMCGYHSQDRYEFSSHIT  2.13
76. IDPFECNMCGYHSQDRYEFSSHIT  2.13
77. RDPFECNMCRYHSQDRYEFSSHIT  2.13
78. RDPFEINMCGYHSQDRYEFSSHIT  2.14
79. KDPFECNMCGYHSQDRYEFSSHIT  2.15
80. RDPFECNICGYHSQDRYEFSSHIT  2.16
81. RDPFECNMCAYHSQDRYEFSSHIT  2.16
82. RDPFECNHCGYHSQDRYEFSSHIT  2.17
83. RDPLECNMCGYHSQDRYEFSSHIT  2.17
84. REPFECNMCGYHSQDRYEFSSHIT  2.18
85. RDPFECNLCGYHSQDRYEFSSHIT  2.18
86. RDQFECNMCGYHSQDRYEFSSHIT  2.18
87. RDPFECTMCGYHSQDRYEFSSHIT  2.18
88. RCPFECNMCGYHSQDRYEFSSHIT  2.19
89. RDPFECNCCGYHSQDRYEFSSHIT  2.19
90. RIPFECNMCGYHSQDRYEFSSHIT  2.2
91. WDPFECNMCGYHSQDRYEFSSHIT  2.2
92. RDPVECNMCGYHSQDRYEFSSHIT  2.2
93. RVPFECNMCGYHSQDRYEFSSHIT  2.21
94. RDPFECNQCGYHSQDRYEFSSHIT  2.21
95. RDCFECNMCGYHSQDRYEFSSHIT  2.21
96. RDPFECNFCGYHSQDRYEFSSHIT  2.23
97. TDPFECNMCGYHSQDRYEFSSHIT  2.23
98. RDPFEPNMCGYHSQDRYEFSSHIT  2.23
99. RDPFECGMCGYHSQDRYEFSSHIT  2.25
100. RDPFECHMCGYHSQDRYEFSSHIT  2.25
101. VDPFECNMCGYHSQDRYEFSSHIT  2.25
102. MDPFECNMCGYHSQDRYEFSSHIT  2.26
103. RDPWECNMCGYHSQDRYEFSSHIT  2.27
104. RDEFECNMCGYHSQDRYEFSSHIT  2.29
105. RDPFECEMCGYHSQDRYEFSSHIT  2.29
106. RDPFECNVCGYHSQDRYEFSSHIT  2.3
107. RDPFEGNMCGYHSQDRYEFSSHIT  2.3
108. LDPFECNMCGYHSQDRYEFSSHIT  2.31
109. RDPCECNMCGYHSQDRYEFSSHIT  2.31
110. RDPFECNMCKYHSQDRYEFSSHIT  2.32
111. RDPFECNMCHYHSQDRYEFSSHIT  2.33
112. RDPFECNWCGYHSQDRYEFSSHIT  2.34
113. RDPFECNMFGYHSQDRYEFSSHIT  2.34
114. RDPFECNMWGYHSQDRYEFSSHIT  2.36
115. RDPFECKMCGYHSQDRYEFSSHIT  2.37
116. RDPFICNMCGYHSQDRYEFSSHIT  2.38
117. RDPFTCNMCGYHSQDRYEFSSHIT  2.38
118. RDPFEQNMCGYHSQDRYEFSSHIT  2.38
119. RDPFECNTCGYHSQDRYEFSSHIT  2.39
120. RDPFECNSCGYHSQDRYEFSSHIT  2.4
121. RDPFECNYCGYHSQDRYEFSSHIT  2.4
122. RDPFECNMCNYHSQDRYEFSSHIT  2.4
123. RDPMECNMCGYHSQDRYEFSSHIT  2.4
124. PDPFECNMCGYHSQDRYEFSSHIT  2.43
125. RDPFEHNMCGYHSQDRYEFSSHIT  2.43
126. NDPFECNMCGYHSQDRYEFSSHIT  2.44
127. RDPFECNMCPYHSQDRYEFSSHIT  2.44
128. RDPAECNMCGYHSQDRYEFSSHIT  2.44
129. CDPFECNMCGYHSQDRYEFSSHIT  2.47
130. RDPHECNMCGYHSQDRYEFSSHIT  2.47
131. GDPFECNMCGYHSQDRYEFSSHIT  2.49
132. RDPFECNMCCYHSQDRYEFSSHIT  2.49
133. RDPFEKNMCGYHSQDRYEFSSHIT  2.49
134. RDPFEWNMCGYHSQDRYEFSSHIT  2.5
135. RDPFESNMCGYHSQDRYEFSSHIT  2.5
136. RDPFEANMCGYHSQDRYEFSSHIT  2.5
137. RDPFEVNMCGYHSQDRYEFSSHIT  2.5
138. RDPFECDMCGYHSQDRYEFSSHIT  2.51
139. RDPFECNKCGYHSQDRYEFSSHIT  2.52
140. RDPSECNMCGYHSQDRYEFSSHIT  2.52
141. RDPFECNNCGYHSQDRYEFSSHIT  2.54
142. RDPPECNMCGYHSQDRYEFSSHIT  2.54
143. QDPFECNMCGYHSQDRYEFSSHIT  2.55
144. RDPFENNMCGYHSQDRYEFSSHIT  2.56
145. RDPFECNMQGYHSQDRYEFSSHIT  2.57
146. RDPFECNMCQYHSQDRYEFSSHIT  2.58
147. RDHFECNMCGYHSQDRYEFSSHIT  2.59
148. RDPFECNMYGYHSQDRYEFSSHIT  2.63
149. RDPFECNMHGYHSQDRYEFSSHIT  2.63
150. ADPFECNMCGYHSQDRYEFSSHIT  2.63
151. RDPFECNPCGYHSQDRYEFSSHIT  2.64
152. RDPEECNMCGYHSQDRYEFSSHIT  2.66
153. EDPFECNMCGYHSQDRYEFSSHIT  2.67
154. RDPGECNMCGYHSQDRYEFSSHIT  2.68
155. RDPFECNMCTYHSQDRYEFSSHIT  2.69
156. RDPFDCNMCGYHSQDRYEFSSHIT  2.7
157. RDPFECNMCSYHSQDRYEFSSHIT  2.7
158. DDPFECNMCGYHSQDRYEFSSHIT  2.73
159. RDPKECNMCGYHSQDRYEFSSHIT  2.77
160. RDPFECNMCEYHSQDRYEFSSHIT  2.79
161. RDPFECNMCDYHSQDRYEFSSHIT  2.8
162. RDPDECNMCGYHSQDRYEFSSHIT  2.9
163. RDPQECNMCGYHSQDRYEFSSHIT  2.91
164. HDPFECNMCGYHSQDRYEFSSHIT  2.92
165. RDPTECNMCGYHSQDRYEFSSHIT  2.97
166. RDPFECNMAGYHSQDRYEFSSHIT  2.98
167. RDDFECNMCGYHSQDRYEFSSHIT  2.99
168. RDPFECNMGGYHSQDRYEFSSHIT  3.02
169. RDPFECNMLGYHSQDRYEFSSHIT  3.05
170. RDPNECNMCGYHSQDRYEFSSHIT  3.05
171. RDPFECNMMGYHSQDRYEFSSHIT  3.06
172. RDPFECNMVGYHSQDRYEFSSHIT  3.06
173. RDPFECNECGYHSQDRYEFSSHIT  3.08
174. RDPFECNMIGYHSQDRYEFSSHIT  3.08
175. RDPRECNMCGYHSQDRYEFSSHIT  3.08
176. RDPFECNMPGYHSQDRYEFSSHIT  3.09
177. RDPFECNDCGYHSQDRYEFSSHIT  3.11
178. RDPFECNMKGYHSQDRYEFSSHIT  3.19
179. RDPFETNMCGYHSQDRYEFSSHIT  3.21
180. RDPFECNMRGYHSQDRYEFSSHIT  3.24
181. RDPFECNMNGYHSQDRYEFSSHIT  3.28
182. RDPFECNMSGYHSQDRYEFSSHIT  3.42
183. RDPFECNMTGYHSQDRYEFSSHIT  3.55
184. RDPFEENMCGYHSQDRYEFSSHIT  3.58
185. RDPFECPMCGYHSQDRYEFSSHIT  3.61
186. RDPFECNMEGYHSQDRYEFSSHIT  3.7
187. RDPFEDNMCGYHSQDRYEFSSHIT  3.8
188. RDPFECNMDGYHSQDRYEFSSHIT  3.83

— the supplement of paper PMC10567573
